One block for each molecule: values may come before it. No end group written: not given here.
Key:
[1] = molecular target: T1, GPCR142 (Homo sapiens, UniProt Q8TDU9, L329S); experiment: Inhibition of forskolin-stimulated cAMP (CRE-β-galactosidase) in SK-N-MC cells; format: cell-based; design: The complete coding region of human GPCR142 was PCR-amplified from human genomic DNA; expressed in transfected cells; HEK293 co-transfected with Gqi5 (Ca2+); settings: SK-N-MC cells stably expressing GPCR142
Protocol: SK-N-MC cells stably expressing GPCR142 were established by transfection of GPCR142 expressing plasmids into SK-N-MC cells harboring a β-galactosidase gene under control of multiple cAMP responsive elements. The stable transfectants were selected by culturing the transfected cells under G418 selection (400 mg/L). The receptor expressing cells were seeded in 96-well plates at a cell density of 30,000 cells/well. After 24 h, cells were stimulated with forskolin or different peptides. Cells were cultured for an additional 6 h and the intracellular β-gal activity, which represents the intracellular cAMP accumulation, was measured as described by Liu et al. (2000), Mol. Pharmacol., 59, 420-426.

[2] = molecular target: T1, GPCR142; experiment: Radioligand binding assay with 125I-relaxin3 (saturation and competition), COS-7 cell membranes; design: The complete coding region of human GPCR142 was PCR-amplified from human genomic DNA; expressed in transfected cells; settings: competition binding, COS-7 membranes
Protocol: (§1) The binding mixtures were incubated at room temperature for 1 h and then were filtered through 96-well GFC plates (Packard) and washed with ice-cold washing buffer: 50 mM Tris-HCl, pH 7.4. Fifty microliters of Microscint-40 were added to each well and the plates were counted in a Topcounter NTX (Packard). The radioligand binding results were analyzed using GraphPad PRISM software.
The binding assays were performed at room temperature for an incubation time of one hour. The binding mixtures were then filtered through GFC filters pre-saturated with 0.3 polyethylenimine (Sigma) and washed with cold binding buffer. The bound radioligand was counted in a top counter (TopCount/NTX, Packard) with Microscint-40. The results were analyzed by Prism 3.0 software.

[3] = molecular target: T1, GPCR142; experiment: GTPγS binding assay, GPCR142 expressing cell membranes; format: biochemical; design: The complete coding region of human GPCR142 was PCR-amplified from human genomic DNA; expressed in transfected cells; CHO membranes (GTPγS); HEK293 co-transfected with Gα16 (Ca2+)
Protocol: The GPCR142 expression vector described above was transfected into CHO cells using Lipofectamine (Invitrogen) according to the manufacturer's instructions. Two days after transfection, the cells were harvested and the cell membranes were prepared by homogenizing the cells in cold 50 mM Tris-HCl, 5 mM EDTA, pH 7.5 followed by centrifugation at 4° C. 1000 g for 10 min. The supernatant was centrifuged at 4° C. 20,000 g for 30 min and the pellet was re-suspended in GTPγS binding buffer: 50 mM Tris-HCl, pH 7.4, 10 mM MgCl2, 1 mM EDTA, pH 8.0, and 100 mM NaCl using a polytron tissue homogenizer. Protease inhibitors were added to the buffer at concentrations of 1 mM PMSF, 10 μg/ml of pepstatin A, 10 μg/ml of leupeptin. Cell membranes and different concentrations of ligands were added to 96-well plates and incubated at room temperature for 20 min. ^35S-GTPγS (NEN) was then added to each well at a final concentration of […] in a final volume of 200 μL. The reactions were allowed to proceed at room temperature for 1 h, and then the mixtures were filtered though a 96-well GFC filter plate (Packard) and washed with cold washing buffer: 50 mM Tris-HCl, pH 7.4, 10 mM MgCl2. Fifty microliters of Microscint-40 (Packard) was added to each well and the plate was counted on a top counter (TopCount NTX, Packard).

[4] = molecular target: T1, GPCR142; experiment: Ca2+ mobilization assay (FLIPR), HEK293 cells co-expressing GPCR142 and Gα16; format: cell-based; design: The complete coding region of human GPCR142 was PCR-amplified from human genomic DNA; expressed in transfected cells; HEK293 co-transfected with Gα16 (Ca2+)
Protocol: Human embryonic kidney (HEK) 293 cells were transfected with GPCR135,.GPCR142 or co-transfected with Gqi5 (Conklin et al. (1993), Nature 363, 274-280) or Gα16 (Amatruda et al. (1991), Proc. Natl. Acad. Sci. U.S.A. 88, 5587-5591) expressing plasmids using LipofectAmine. Two days after transfection, cells were detached with PBS plus 10 mM EDTA. The detached cells were washed with DMEM-F12 medium (without phenol red, Invitrogen) and seeded in black poly-D lysine coated 96-well plates (BD Biosciences, San Jose, Calif.) at a cell density of 50,000 cell/well.

[5] = molecular target: T2, human GPCR142 (human, UniProt Q8TDU9 1-374); experiment: competition binding with ^125I-relaxin3, membranes of COS-7 cells expressing GPCR142
T2 construct: Expressed in COS-7, CHO, SK-N-MC or HEK293 cells
Protocol: as §1, with “(Packard).” for “(Packard). The radioligand binding results were analyzed using GraphPad PRISM software.”

[6] = molecular target: T2, human GPCR142; experiment: competition binding with ^125I-relaxin3, membranes of COS-7 cells transiently expressing GPCR142
Protocol: as §1, with “(Packard).” for “(Packard). The radioligand binding results were analyzed using GraphPad PRISM software.”

[7] = molecular target: T2, human GPCR142; experiment: cell-based or functional assay
[8] = molecular target: T2, human GPCR142; experiment: saturation radioligand binding, membranes of COS-7 cells transiently expressing GPCR142
Protocol: as §1, with “(Packard).” for “(Packard). The radioligand binding results were analyzed using GraphPad PRISM software.”

T1 sequence (Q8TDU9 whole entry L329S): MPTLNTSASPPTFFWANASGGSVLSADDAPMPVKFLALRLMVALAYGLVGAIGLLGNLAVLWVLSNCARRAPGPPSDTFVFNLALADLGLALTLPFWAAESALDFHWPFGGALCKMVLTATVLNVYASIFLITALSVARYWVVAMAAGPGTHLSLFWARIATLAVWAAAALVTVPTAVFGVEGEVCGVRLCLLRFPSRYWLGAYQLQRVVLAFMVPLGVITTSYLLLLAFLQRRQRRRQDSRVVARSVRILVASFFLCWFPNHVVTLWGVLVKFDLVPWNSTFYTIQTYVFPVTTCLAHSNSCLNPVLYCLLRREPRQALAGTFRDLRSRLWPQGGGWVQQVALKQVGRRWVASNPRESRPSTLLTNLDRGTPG
T2 sequence (Q8TDU9 whole entry L329S): as above

- displacement of 125I-relaxin3 binding to GPCR142 [2]: displaced
- stimulation of 35S-GTPγS binding (agonist activity) [3]: stimulate
Molecule: CC[C@H](C)[C@@H]1NC(=O)[C@H](Cc2ccccc2)NC(=O)[C@H](CCC(=O)O)NC(=O)[C@H](CCCNC(=N)N)NC(=O)CNC(=O)[C@@H](NC(=O)[C@H](CC(C)C)NC(=O)[C@H](CCCNC(=N)N)NC(=O)[C@@H](NC(=O)CNC(=O)[C@H](Cc2ccc(O)cc2)NC(=O)[C@@H]2CCCN2C(=O)[C@H](C)NC(=O)[C@H](C)NC(=O)[C@@H](N)CCCNC(=N)N)C(C)C)CSSC[C@@H](C(=O)NCC(=O)NCC(=O)N[C@@H](CO)C(=O)N[C@@H](CCCNC(=N)N)C(=O)N[C@@H](Cc2c[nH]c3ccccc23)C(=O)O)NC(=O)[C@H]([C@@H](C)O)NC(=O)[C@H](Cc2ccccc2)NC(=O)[C@H]([C@@H](C)CC)NC(=O)[C@H](C(C)C)NC(=O)[C@H](C)NC(=O)[C@H](CCCNC(=N)N)NC1=O [relaxin3 B-chain, reference compound]
- inhibition of forskolin induced β-galactosidase expression [1]: showed ligand activity, albeit with a significantly lower potency

Molecule: INSL5: Human INSL5 (SEQ ID NO: 5), recombinantly expressed in COS-7 cells, relaxin/insulin superfamily peptide (KESVRLCGLEYIRTVIYICASSRWQDLQTLCCTDGCSMTDLSALC; ends and bridges not checked; cysteine pairing not given here; listed as Homo sapiens)
- inhibition of forskolin induced β-galactosidase expression [1]: dose-dependently inhibits
- stimulation of Ca2+ mobilization [4]: stimulated Ca2+ mobilization
- displacement of 125I-relaxin3 binding to GPCR142 [2]: specifically displaced
- stimulation of 35S-GTPγS binding (agonist activity) [3]: stimulated GTPγS binding

- binding result [5]: no binding
B1: Porcine relaxin (ligand)
chain 1: QSTNDFIKACGRELVRLWVEICGSVSWGRTAL
chain 2: RMTLSEKCCQVGCIRKDIARLC
notes: The results paragraph prints only 'relaxin'

- Ki [6]: 85 nM
- EC50, GTPγS binding assay [7]: ~100 nM
B2: relaxin3 B-chain (peptide, UniProt Q8WXF3 26-52, looked up)
peptide: RAAPYGVRLCGREFIRAVIFTCGGSRW
modifications: not fully specified (bridges); ends and bridges not checked; also: oxidized
notes: domain: B-chain; Bought peptide; also called oxidized relaxin-3 B-chain peptide

- binding result [5]: no binding
B3: relaxin3 A-chain (peptide, UniProt Q8WXF3 119-142, looked up)
peptide: DVLAGLSSSCCKWGCSKSEISSLC
modifications: ends and bridges not checked; also: oxidized
notes: domain: A-chain; Bought peptide; also called oxidized relaxin-3 A-chain peptide

- binding result [5]: no binding
B4: Human INSL4 (ligand)
chain 1: AELRGCGPRFGKHLLSYCPMPEKTFTTTPGGWL
chain 2: SGRHRFDPFCCEVICDDGTSVKLCT

- Kd [8]: 1.9 nM
B5: ^125I-relaxin3 (ligand)
chain 1: RAAPYGVRLCGREFIRAVIFTCGGSRW
chain 2: DVLAGLSSSCCKWGCSKSEISSLC
modifications: ends and bridges not checked; also: 125I label, residue not given here
notes: also called radioligand; tracer
